Here are results for 1 molecule from article PMC3923297, “Structural basis for microtubule recognition by the human kinetochore Ska complex” (Nature Communications, 2014).

Where “and” joins values, the source holds several entries; their conditions need not be identical. Equal entries are not always repeated.

The target of test [1] is T1, microtubules polymerised from tubulin (α1B and β2B tubulin) (UniProt P81947 1-451; Q6B856 1-445).
T1 construct: α-tubulin, printed as α1B tubulin; β-tubulin, printed as β2B tubulin; Polymer of α/β-tubulin dimers; The same tubulin stood as taxol-stabilized (straight) MTs and as vinblastine spirals (curved); the assay tells them apart; brain tubulin is a mix of isotypes; also called MTs; taxol-stabilized MTs; source: bought: Cytoskeleton Inc. (tubulin), polymerised; taxol-stabilized MTs or vinblastine spirals
T1 sequence (P81947 whole entry, chain 1 of 2): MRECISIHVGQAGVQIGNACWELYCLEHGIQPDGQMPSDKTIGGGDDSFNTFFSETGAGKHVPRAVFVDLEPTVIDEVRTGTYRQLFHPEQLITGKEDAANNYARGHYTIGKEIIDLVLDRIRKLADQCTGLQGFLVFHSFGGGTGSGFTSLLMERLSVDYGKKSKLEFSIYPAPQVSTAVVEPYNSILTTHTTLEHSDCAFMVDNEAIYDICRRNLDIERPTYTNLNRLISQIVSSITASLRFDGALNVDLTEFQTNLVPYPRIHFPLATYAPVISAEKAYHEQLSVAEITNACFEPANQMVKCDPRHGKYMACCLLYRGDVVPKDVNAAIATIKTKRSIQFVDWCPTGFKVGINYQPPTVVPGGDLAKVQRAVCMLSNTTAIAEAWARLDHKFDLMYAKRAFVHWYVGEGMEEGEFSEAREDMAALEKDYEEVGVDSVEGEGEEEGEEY
T1 sequence (Q6B856 whole entry, chain 2 of 2): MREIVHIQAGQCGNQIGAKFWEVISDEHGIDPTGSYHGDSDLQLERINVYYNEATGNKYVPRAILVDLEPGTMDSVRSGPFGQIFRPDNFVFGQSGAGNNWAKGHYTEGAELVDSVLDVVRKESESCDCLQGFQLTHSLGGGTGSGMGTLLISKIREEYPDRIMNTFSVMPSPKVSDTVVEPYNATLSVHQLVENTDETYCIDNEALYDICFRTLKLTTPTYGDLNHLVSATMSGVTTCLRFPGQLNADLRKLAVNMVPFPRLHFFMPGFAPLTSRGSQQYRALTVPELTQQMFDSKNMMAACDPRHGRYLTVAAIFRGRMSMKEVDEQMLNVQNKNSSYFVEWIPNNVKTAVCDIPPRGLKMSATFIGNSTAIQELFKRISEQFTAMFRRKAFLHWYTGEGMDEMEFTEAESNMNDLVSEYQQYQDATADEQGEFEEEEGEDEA
Description: co-sedimentation; MT-pelleting assay: taxol-stabilized MTs or subtilisin-treated MTs (0-12 μM tubulin dimer) with 1 or 3 μM protein, 10 min at room temperature, BRB80 (80 mM PIPES pH 6.9, 1 mM EGTA, 1 mM MgCl2) with 100 mM NaCl, 4 mM DTT, 20 μM taxol; spun through a glycerol cushion, 25 °C; SDS-PAGE, Coomassie, ImageJ. Kd: 1 μM Ska and 0-12 μM MTs; single points: 3 μM Ska (or 1 μM) and 6 μM MTs. As to conditions: both partners purified.

Test [2] deals with microtubules polymerised from tubulin (α1B and β2B tubulin), P81947;Q6B856. The experiment in a line: MT cosedimentation assay. The note with it: 3 μM Ska and 6 μM vinblastine spirals; parent: est. 0.60; read off a plot.

B1: human Ska complex (Ska1, Ska2, Ska3), wild type, full length (complex)
chain 1: MASSDLEQLCSHVNEKIGNIKKTLSLRNCGQEPTLKTVLNKIGDEIIVINELLNKLELEIQYQEQTNNSLKELCESLEEDYKDIEHLKENVPSHLPQVTVTQSCVKGSDLDPEEPIKVEEPEPVKKPPKEQRSIKEMPFITCDEFNGVPSYMKSRLTYNQINDVIKEINKAVISKYKILHQPKKSMNSVTRNLYHRFIDEETKDTKGRYFIVEADIKEFTTLKADKKFHVLLNILRHCRRLSEVRGGGLTRYVIT
chain 2: MEAEVDKLELMFQKAESDLDYIQYRLEYEIKTNHPDSASEKNPVTLLKELSVIKSRYQTLYARFKPVAVEQKESKSRICATVKKTMNMIQKLQKQTDLELSPLTKEEKTAAEQFKFHMPDL
chain 3: MDPIRSFCGKLRSLASTLDCETARLQRALDGEESDFEDYPMRILYDLHSEVQTLKDDINILLDKARLENQEGIDFIKATKVLMEKNSMDIMKIREYFQKYGYSPRVKKNSVHEQEAINSDPELSNCENFQKTDVKDDLSDPPVASSCISEKSPRSPQLSDFGLERYIVSQVLPNPPQAVNNYKEEPVIVTPPTKQSLVKVLKTPKCALKMDDFECVTPKLEHFGISEYTMCLNEDYTMGLKNARNNKSEEAIDTESRLNDNVFATPSPIIQQLEKSDAEYTNSPLVPTFCTPGLKIPSTKNSIALVSTNYPLSKTNSSSNDLEVEDRTSLVLNSDTCFENLTDPSSPTISSYENLLRTPTPPEVTKIPEDILQLLSKYNSNLATPIAIKAVPPSKRFLKHGQNIRDVSNKEN
notes: Ska1, human; Ska2, human; Ska3, human, V58I as cloned; Ska3 V58I is printed without explanation; TEV-cleavable tags removed in solution; also called WT Ska complex; FL Ska complex; source: E. coli BL21 Gold, co-expressed, purified (glutathione sepharose, size-exclusion chromatography); copies: 2 + 2 + 2
In the case of B1, the Kd – broadly, the concentration at which binding is half-saturated – in test [1] turned out to be 2.9 ± 0.6 µM. In addition, the response (bound fraction) in test [2] was 0.63 and 0.21 and 0.31.
